Experimental data: PMC8428864

Target: photosystem I from Cyanobacterium aponinum 0216 (one monomer of the trimer, 11 protein subunits) (Cyanobacterium aponinum 0216 (endogenous)) (UniProt K9Z0B2)
Assay: cryo-EM structure; single-particle cryo-EM of the purified PSI trimer, C3 symmetry imposed; 30 mM Tricine–NaOH pH 8, 150 mM NaCl, 0.02% DDM; three monomers in the trimer

## photosystem I from Cyanobacterium aponinum 0216 (one monomer of the trimer, 11 protein subunits) (from UniProt K9Z0B2 1-750; K9Z2J7 1-738; K9Z1N0 1-81; K9Z9J3 1-39; K9Z7Y0 1-163) (complex)
  stoichiometry N: 3
